Consider one molecule from US20240050559A1 (ICOSAVAX, published 2024).

In the experiment the target is T1, compA-01.
T1 chain: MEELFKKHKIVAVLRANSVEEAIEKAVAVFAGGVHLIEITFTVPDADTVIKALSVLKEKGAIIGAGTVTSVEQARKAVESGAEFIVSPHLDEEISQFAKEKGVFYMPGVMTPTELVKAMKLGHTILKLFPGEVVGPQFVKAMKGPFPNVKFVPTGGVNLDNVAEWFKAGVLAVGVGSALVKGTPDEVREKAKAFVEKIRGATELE
Nature of the experiment: particle assembly of purified compB-01 with compA-01.

B1: compB-01 (I53-50B sequence) (designed binder)
chain: MNQHSHKDHETVRIAVVRARWHAEIVDACVSAFEAAMRDIGGDRFAVDVFDVPGAYEIPLHARTLAETGRYGAVLGTAFVVNGGIYRHEFVASAVINGMMNVQLNTGVPVLSAVLTPHNYDKSKAHTLLFLALFAVKGMEAARACVEILAAREKIAA
notes: Designed pentameric component B of the two-component I53-50 icosahedral particle; also called I53-50B compB-01; bompB-01
Turning to B1, the binding result is reported as “binds”.
